From US20240398951A1 (WISTAR INSTITUTE OF ANATOMY AND BIOLOGY, published 2024)

Molecular target: T1, human follicle stimulating hormone receptor (FSHR) (human, UniProt P23945 18-695)
T1 sequence (looked up): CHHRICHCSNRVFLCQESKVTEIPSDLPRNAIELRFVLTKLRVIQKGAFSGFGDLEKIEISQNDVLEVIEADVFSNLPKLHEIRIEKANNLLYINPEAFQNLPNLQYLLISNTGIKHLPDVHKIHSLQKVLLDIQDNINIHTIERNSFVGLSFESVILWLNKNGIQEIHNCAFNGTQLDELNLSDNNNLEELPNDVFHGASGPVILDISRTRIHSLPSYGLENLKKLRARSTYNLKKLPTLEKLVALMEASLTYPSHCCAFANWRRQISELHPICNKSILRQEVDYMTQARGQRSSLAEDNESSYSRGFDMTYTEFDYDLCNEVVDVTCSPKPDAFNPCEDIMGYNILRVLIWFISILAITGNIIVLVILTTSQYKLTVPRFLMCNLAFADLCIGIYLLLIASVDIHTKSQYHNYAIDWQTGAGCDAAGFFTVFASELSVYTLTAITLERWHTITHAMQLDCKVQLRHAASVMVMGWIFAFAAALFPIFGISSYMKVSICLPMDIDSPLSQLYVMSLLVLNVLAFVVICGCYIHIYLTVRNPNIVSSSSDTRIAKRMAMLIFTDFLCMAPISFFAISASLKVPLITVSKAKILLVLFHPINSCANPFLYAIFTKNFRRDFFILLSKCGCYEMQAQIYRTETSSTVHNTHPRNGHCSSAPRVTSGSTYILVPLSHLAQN
Experiment: cell-based or functional assay

B1: D2AP11-TCE (FSHRxCD3 DNA encoded bispecific T cell engager) (bispecific antibody)
chain: DIQMTQSPSSLSASVGDRVTISCRASESVDNYGISFLNWFQQKPGKAPKLLIYAASNQRSGVPSRFSGSGSGTDFTLTISSLQPEDFATYFCQQSKEVPWTFGQGTKVEIKRGGGGSGGGGSGGGGSEVQLVESGGGLVQPGGSLRLSCSFSGFSLSTSGMGVGWIRQAPGKGLEWVAHIWWDDDKRYNPALKSRFTLSVDRSKNTLYLQMNSLRAEDTATYYCVQINYGNYRFDNWGHGTLVTVSSGGGGSEVQLVESGGGLVQPGGSLRLSCAASGYSFTGYTMNWVRQAPGKGLEWVALINPYKGVSTYNQKFKDRFTISVDKSKNTAYLQMNSLRAEDTAVYYCARSGYYGDSDWYFDVWGQGTLVTVSSGGGGSGGGGSGGGGSDIQMTQSPSSLSASVGDRVTITCRASQDIRNYLNWYQQKPGKAPKLLIYYTSRLESGVPSRFSGSGSGTDYTLTISSLQPEDFATYYCQQGNTLPWTFGQGTKVEIKSS
EC50 of dose dependent killing of OVCAR3 cells (xCELLigence, human PBMCs/T cells): 0.0159 µg/mL | EC50 of dose dependent killing of OVISE-FSHR cells (xCELLigence, human PBMCs/T cells): 0.0247 µg/mL | EC50 of killing of OVCAR4 cells in presence of human PBMCs (xCELLigence): 0.0113 µg/mL | potency of killing of OVCAR4 cells compared to the anti-FSHR ab D2AP11: ~1000 fold
